Assay results reported in PMC4650419 (Cell Research, 2015).
Substitutions are numbered along the chain they refer to.

B1: mouse monoclonal antibody 2E6 (IgG1) (antibody, V domains shown)
VH: QVQLKGSGPGLVAPSQSLSITCTVSGFSLTGYGVNWVRQPPGKGLEWLGMIWGDGSTDYNSALKSRLSISKDNSKSQVFLKMNSLQTDDTARYYCARVGDYGDYFDYWGQGTTLTVSS
VL: DIQMTQSPASLSASVGETVTITCRASENIYSYLAWYQQKQGKSPQLLVYNAKTLAEGVPSRFSGSGSGTQFSLKINSLQPEDFGSYYCQHHYGTPWFGGGTKLEIK
B2: mouse monoclonal antibody 4C2 (IgG1) (antibody, V domains shown)
VH: DVKLVESGGGLVKPGGSLKLSCAASGFTFSSYTMSWVRQTPEKRLEWVATISSGGSYTYYPDSVKGRFTISRDNAKNTLYLQMSSLKSEDTAMYYCTRDGNDYDYWGQGTTLTVSS
VL: DIQMTQTTSSLSASLGDRVTISCRASQDISNYLNWYQQKPDGTVKLLIYYTSRLHSGVPSRFSGSGSGTDYSLTISNLEQEDIATYFCQQGNTLPRTFGGGTKLEIK
B3: humanized 4C2 (4C2h), full-length antibody (antibody, V domains shown)
VH: B2 VH with D1Q, K3Q, V5Q, E42D, T97A, T111M, L112V
VL: DIQLTQSPSSLSASIGDRVTITCQASQDISNYLNWYQQRPGQAPKLLIYYTSRLHSGVPSRFSGRGSGTSFTIAINSFQAEDIGTYFCQQGNTLPRTFGGGTRVEIK

Biological target: MERS-CoV spike receptor-binding domain (spike residues 367-606), hexa-His tagged (MERS-CoV, isolate EMC/2012 (GenBank …))
Experiment: SPR

| Binder | Kd |
| --- | --- |
| B1 | 60.3 nM |
| B2 | 162 nM |
| B3 | ~217 nM |
